{"source": "patent US8642284", "key": {"[1]": {"tested_on": "histone H1 (calf thymus)"}, "[2]": {"target": "histone H2A (calf thymus) (UniProt P0C0S9)"}, "[3]": {"target": "histone H2B (calf thymus) (UniProt P62808)"}, "[4]": {"target": "histone H3 (calf thymus), intact protein (UniProt P68432)"}, "[5]": {"tested_on": "histone H3 N-terminal tail peptide (residues 1-20) di-acetylated at lysines 9 and 14"}, "[6]": {"target": "histone H4 (calf thymus) (UniProt P62803)"}, "[7]": {"tested_on": "unacetylated histone H3 N-terminal tail peptide (residues 1-20)"}}}
{"substance": "recombinant 6xHis-tagged full-length yeast Sir2p", "values": [{"measurement": "ADP-ribosylation (transfer of 32P from NAD, SDS-PAGE)", "setting": "[1]", "value": "but not to H1, H2A and H4"}, {"measurement": "ADP-ribosylation (transfer of 32P from NAD, SDS-PAGE)", "setting": "[2]", "value": "but not to H1, H2A and H4"}, {"measurement": "ADP-ribosylation (transfer of 32P from NAD, SDS-PAGE)", "setting": "[3]", "value": "transferred radioactive ADP-ribose to H2B and H3"}, {"measurement": "ADP-ribosylation (transfer of 32P from NAD, SDS-PAGE)", "setting": "[4]", "value": "transferred radioactive ADP-ribose to H2B and H3"}, {"measurement": "transfer of 32P from NAD (SDS-PAGE)", "setting": "[4]", "value": "32P was transferred from NAD to intact histone H3"}, {"measurement": "ADP-ribosylation of peptide (32P-NAD, thin layer chromatography)", "setting": "[5]", "value": "Both the yeast and mouse Sir2 modified only the diacetylated H3 tail peptide"}, {"measurement": "NAD-dependent deacetylation (HPLC, areas under peaks 1, 2 and 4)", "setting": "[5]", "value": "at least 27% of the input peptide was deacetylated by Sir2p"}, {"measurement": "deacetylation of Lys9 in peak 4 (Edman sequencing)", "setting": "[5]", "value": "about 23% of Lys9"}, {"measurement": "deacetylation of Lys14 in peak 4 (Edman sequencing)", "setting": "[5]", "value": "27% of Lys 14"}, {"measurement": "ADP-ribosylation (transfer of 32P from NAD, SDS-PAGE)", "setting": "[6]", "value": "but not to H1, H2A and H4"}, {"measurement": "ADP-ribosylation of peptide (32P-NAD, thin layer chromatography)", "setting": "[7]", "value": "modified only the diacetylated H3 tail peptide (unacetylated peptide not modified)"}]}
